Assay results as given in patent US20040063627A1 (BROWN UNIVERSITY RESEARCH FOUNDATION, published 2004).

Biological target: T1, QE-Bgn (bacterially expressed recombinant human biglycan core) (human, UniProt P21810 38-368)
T1 construct: Produced in E. coli M15[pREP4]; contains no chondroitin sulfate side chains; tested as lysate of induced bacteria on a blot; also called QE-BIG; bacterially-expressed biglycan
T1 sequence: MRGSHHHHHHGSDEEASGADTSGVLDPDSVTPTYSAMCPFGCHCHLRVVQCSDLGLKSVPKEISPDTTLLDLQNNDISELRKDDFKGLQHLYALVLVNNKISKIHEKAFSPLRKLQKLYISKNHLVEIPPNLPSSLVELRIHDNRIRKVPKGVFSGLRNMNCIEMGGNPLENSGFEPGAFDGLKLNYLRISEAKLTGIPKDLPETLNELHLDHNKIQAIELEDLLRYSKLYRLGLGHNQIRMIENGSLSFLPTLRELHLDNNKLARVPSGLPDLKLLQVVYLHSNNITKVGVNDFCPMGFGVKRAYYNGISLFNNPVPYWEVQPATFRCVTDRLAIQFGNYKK
Test: dystroglycan blot overlay on lysate of induced bacteria (FIG. 7)

B1: α-dystroglycan (dystroglycan as named in the overlay assays; fragment not named at the place) (receptor, human, UniProt Q14118 345-653, looked up)
chain: PAIAPPTETMAPPVRDPVPGKPTVTIRTRGAIIQTPTLGPIQPTRVSEAGTTVPGQIRPTMTIPGYVEPTAVATPPTTTTKKPRVSTPKPATPSTDSTTTTTRRPTKKPRTPRPVPRVTTKVSITRLETASPPTRIRTTTSGVPRGGEPNQRPELKNHIDRVDAWVGTYFEVKIPSDTFYDHEDTTTDKLKLTLKLREQQLVGEKSWVQFNSNSQLMYGLPDSSHVGKHEYFMHATDKGGLSAVDAFEIHVHRRPQGDRAPARFKAKFVGDPALVLNDIHKKIALVKKLAFAFGDRNCSTITLQNITRG
notes: also called alpha-dystroglycan
  binding result: no binding
